Target: Fluorogenic peptide Dabcyl-…-Edans, EV71 polyprotein autoprocessing site between 3B and 3C (human enterovirus 71)

Substance EV71 3C protease mutant H133G (enzyme) has a Km of cleavage of the fluorogenic 3B-3C peptide (protease assay, 4 μM protease) of 25.9 µM.

— PMC7094522
